The target of experiment [1] is T1, Plasma antichymotrypsin (ACT) (UniProt P01011 24-423).
T1 construct: also called plasma ACT
T1 sequence (looked up): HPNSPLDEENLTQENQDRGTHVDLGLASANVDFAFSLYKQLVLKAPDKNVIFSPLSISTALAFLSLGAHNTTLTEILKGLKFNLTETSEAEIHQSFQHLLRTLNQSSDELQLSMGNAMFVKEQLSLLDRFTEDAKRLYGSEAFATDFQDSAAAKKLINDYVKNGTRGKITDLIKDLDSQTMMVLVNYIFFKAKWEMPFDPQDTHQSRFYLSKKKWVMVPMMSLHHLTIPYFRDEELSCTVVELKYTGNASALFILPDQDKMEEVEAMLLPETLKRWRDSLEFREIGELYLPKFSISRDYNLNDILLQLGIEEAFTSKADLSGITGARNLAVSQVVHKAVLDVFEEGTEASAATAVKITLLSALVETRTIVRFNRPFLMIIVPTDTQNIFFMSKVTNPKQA
The experiment is described as follows: serpin inhibition of the protease.

Experiment [2] has as its target T2, Human Factor B (human, UniProt P00751 26-764). Briefly: cell-based or functional assay.
The target in experiment [3] is T2, Human Factor B. The experiment is described as follows: cell-based or functional assay. This is another data set of the same source.

“And” between values parts separate entries of the source, which are not always exact repeats. Equal values may be shown once.

T2 sequence (P00751 26-764 limits assumed): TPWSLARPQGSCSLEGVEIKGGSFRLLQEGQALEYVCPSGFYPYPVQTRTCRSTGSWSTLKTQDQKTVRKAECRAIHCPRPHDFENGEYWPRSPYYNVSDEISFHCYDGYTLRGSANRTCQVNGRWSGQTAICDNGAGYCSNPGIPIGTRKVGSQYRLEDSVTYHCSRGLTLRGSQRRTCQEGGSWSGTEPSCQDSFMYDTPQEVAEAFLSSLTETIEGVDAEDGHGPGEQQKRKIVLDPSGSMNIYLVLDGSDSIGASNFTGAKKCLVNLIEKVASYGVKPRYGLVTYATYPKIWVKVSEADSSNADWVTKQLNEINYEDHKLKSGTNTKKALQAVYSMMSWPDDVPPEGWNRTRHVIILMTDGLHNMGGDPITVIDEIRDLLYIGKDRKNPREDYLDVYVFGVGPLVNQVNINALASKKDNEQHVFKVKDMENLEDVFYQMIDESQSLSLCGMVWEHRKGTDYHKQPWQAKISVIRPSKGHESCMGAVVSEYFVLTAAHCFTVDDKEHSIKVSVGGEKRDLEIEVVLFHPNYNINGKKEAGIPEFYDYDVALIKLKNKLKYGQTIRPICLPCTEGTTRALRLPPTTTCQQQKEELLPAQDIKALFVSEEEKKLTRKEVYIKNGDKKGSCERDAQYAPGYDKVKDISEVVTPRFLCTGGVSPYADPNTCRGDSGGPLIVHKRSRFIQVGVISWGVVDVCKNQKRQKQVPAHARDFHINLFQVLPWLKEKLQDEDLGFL

B1: chymase C22S/K40L/F41H/L99N/F173Y/D175N/S218L/A226R (enzyme)
chain: IIGGTESKPHSRPYMAYLEIVTSNGPSLHCGGFLIRRNFVLTAAHCAGRSITVTLGAHNITEEEDTWQKLEVIKQFRHPKYNTSTNHHDIMLLKLKEKASLTLAVGTLPFPSQFNFVPPGRMCRVAGWGRTGVLKPGSDTLQEVKLRLMDPQACSHYRNFDHNLQLCVGNPRKTKSAFKGDSGGPLLCAGVAQGIVSYGRLDAKPPRVFTRISHYRPWINQILQAN
notes: also called MS No. 16
Consider B1, for which the kapp in experiment [1] came to 40 M⁻¹ s⁻¹. Besides, in the experiment with Human Factor B [2], the “fB Cleavage EC50” value came to 139 nM and the “fB Cleavage, 80% plasma EC50” value is 5070 nM.

B2: chymase C22S/K40M/F41R/L99N/G151S/F173Y/S218L/A226R (enzyme)
chain: IIGGTESKPHSRPYMAYLEIVTSNGPSMRCGGFLIRRNFVLTAAHCAGRSITVTLGAHNITEEEDTWQKLEVIKQFRHPKYNTSTNHHDIMLLKLKEKASLTLAVGTLPFPSQFNFVPPGRMCRVAGWGRTGVLKPSSDTLQEVKLRLMDPQACSHYRDFDHNLQLCVGNPRKTKSAFKGDSGGPLLCAGVAQGIVSYGRLDAKPPRVFTRISHYRPWINQILQAN
For B2, in experiment [1], the kapp amounted to 317 M⁻¹ s⁻¹. For the same molecule, in the experiment with Human Factor B [2], the “fB Cleavage, 80% plasma EC50” value is 11200 nM.

B3: chymase C22S/K40L/F41K/L99H/G151S/F173Y/S218L/A226R (enzyme)
chain: IIGGTESKPHSRPYMAYLEIVTSNGPSLKCGGFLIRRNFVLTAAHCAGRSITVTLGAHNITEEEDTWQKLEVIKQFRHPKYNTSTHHHDIMLLKLKEKASLTLAVGTLPFPSQFNFVPPGRMCRVAGWGRTGVLKPSSDTLQEVKLRLMDPQACSHYRDFDHNLQLCVGNPRKTKSAFKGDSGGPLLCAGVAQGIVSYGRLDAKPPRVFTRISHYRPWINQILQAN
As to B3, the kapp in experiment [1] was found to be 139 M⁻¹ s⁻¹. Also, the “fB Cleavage, 80% plasma EC50” value with Human Factor B [2] worked out at 17200 nM.

B4: chymase C22S/K40L/F41K/L99N/F173Y/D175N/S218L/A226R (enzyme)
chain: IIGGTESKPHSRPYMAYLEIVTSNGPSLKCGGFLIRRNFVLTAAHCAGRSITVTLGAHNITEEEDTWQKLEVIKQFRHPKYNTSTNHHDIMLLKLKEKASLTLAVGTLPFPSQFNFVPPGRMCRVAGWGRTGVLKPGSDTLQEVKLRLMDPQACSHYRNFDHNLQLCVGNPRKTKSAFKGDSGGPLLCAGVAQGIVSYGRLDAKPPRVFTRISHYRPWINQILQAN
notes: also called MS No. 8
On to B4, for which, in experiment [1], the kapp is 28 M⁻¹ s⁻¹. Further, the “fB Cleavage, 80% plasma EC50” value with Human Factor B [2] was 5700 nM.

B5: chymase C22S/K40L/F41H/L99N/F173Y/S218L/A226R (enzyme)
chain: IIGGTESKPHSRPYMAYLEIVTSNGPSLHCGGFLIRRNFVLTAAHCAGRSITVTLGAHNITEEEDTWQKLEVIKQFRHPKYNTSTNHHDIMLLKLKEKASLTLAVGTLPFPSQFNFVPPGRMCRVAGWGRTGVLKPGSDTLQEVKLRLMDPQACSHYRDFDHNLQLCVGNPRKTKSAFKGDSGGPLLCAGVAQGIVSYGRLDAKPPRVFTRISHYRPWINQILQAN
As for B5, the kapp in experiment [1] came out at 193 M⁻¹ s⁻¹. For the same molecule, in the experiment with Human Factor B [2], the “fB Cleavage, 80% plasma EC50” value is 13900 nM.

B6: chymase C22S/S189T/A190S/A226R (enzyme)
chain: IIGGTESKPHSRPYMAYLEIVTSNGPSKFCGGFLIRRNFVLTAAHCAGRSITVTLGAHNITEEEDTWQKLEVIKQFRHPKYNTSTLHHDIMLLKLKEKASLTLAVGTLPFPSQFNFVPPGRMCRVAGWGRTGVLKPGSDTLQEVKLRLMDPQACSHFRDFDHNLQLCVGNPRKTKTSFKGDSGGPLLCAGVAQGIVSYGRSDAKPPRVFTRISHYRPWINQILQAN
Regarding B6, the kapp in experiment [1] was 935 M⁻¹ s⁻¹. Further, in the experiment with Human Factor B [2], the “fB Cleavage EC50” value was determined as 605 nM.

B7: chymase C22S/K40L/F41R/L99N/F173Y/S218L/A226R (enzyme)
chain: IIGGTESKPHSRPYMAYLEIVTSNGPSLRCGGFLIRRNFVLTAAHCAGRSITVTLGAHNITEEEDTWQKLEVIKQFRHPKYNTSTNHHDIMLLKLKEKASLTLAVGTLPFPSQFNFVPPGRMCRVAGWGRTGVLKPGSDTLQEVKLRLMDPQACSHYRDFDHNLQLCVGNPRKTKSAFKGDSGGPLLCAGVAQGIVSYGRLDAKPPRVFTRISHYRPWINQILQAN
The molecule B7 displayed a kapp in experiment [1] of 190 M⁻¹ s⁻¹. Besides, in the experiment with Human Factor B [2], the “fB Cleavage EC50” value was 379 nM and the “fB Cleavage, 80% plasma EC50” value stood at 15600 nM.

B8: chymase C22S/K40L/F41K/L99H/F173Y/S218L/A226R (enzyme)
chain: IIGGTESKPHSRPYMAYLEIVTSNGPSLKCGGFLIRRNFVLTAAHCAGRSITVTLGAHNITEEEDTWQKLEVIKQFRHPKYNTSTHHHDIMLLKLKEKASLTLAVGTLPFPSQFNFVPPGRMCRVAGWGRTGVLKPGSDTLQEVKLRLMDPQACSHYRDFDHNLQLCVGNPRKTKSAFKGDSGGPLLCAGVAQGIVSYGRLDAKPPRVFTRISHYRPWINQILQAN
The molecule B8 showed a kapp in experiment [1] of 147 M⁻¹ s⁻¹. Besides, the “fB Cleavage, 80% plasma EC50” value in the experiment with Human Factor B [2] came out at 14800 nM.

B9: chymase C22S/K40L/F41L/L99N/G151H/F173Y/S218V/A226R (enzyme)
chain: IIGGTESKPHSRPYMAYLEIVTSNGPSLLCGGFLIRRNFVLTAAHCAGRSITVTLGAHNITEEEDTWQKLEVIKQFRHPKYNTSTNHHDIMLLKLKEKASLTLAVGTLPFPSQFNFVPPGRMCRVAGWGRTGVLKPHSDTLQEVKLRLMDPQACSHYRDFDHNLQLCVGNPRKTKSAFKGDSGGPLLCAGVAQGIVSYGRVDAKPPRVFTRISHYRPWINQILQAN
Molecule B9 displayed a kapp in experiment [1] of 252 M⁻¹ s⁻¹. The “fB Cleavage, 80% plasma EC50” value with Human Factor B [2] is 17100 nM.

B10: chymase C22S/K40L/F41R/L99N/F173Y/D175N/S218L/A226R (enzyme)
chain: IIGGTESKPHSRPYMAYLEIVTSNGPSLRCGGFLIRRNFVLTAAHCAGRSITVTLGAHNITEEEDTWQKLEVIKQFRHPKYNTSTNHHDIMLLKLKEKASLTLAVGTLPFPSQFNFVPPGRMCRVAGWGRTGVLKPGSDTLQEVKLRLMDPQACSHYRNFDHNLQLCVGNPRKTKSAFKGDSGGPLLCAGVAQGIVSYGRLDAKPPRVFTRISHYRPWINQILQAN
notes: also called MS No. 15
B10 gave a kapp in experiment [1] of 37 M⁻¹ s⁻¹. Moreover, in the experiment with Human Factor B [2], the “fB Cleavage EC50” value was 119 nM; the “fB Cleavage, 80% plasma EC50” value is 4090 nM and 3760 nM.

B11: MTSP-1 F97L/T98G/F99V/C122S/C[17]S/C[19]S/-null_D96insD (enzyme)
chain: VVGGTDADEGEWPWQVSLHALGQGHICGASLISPNWLVSAAHCYIDDRGFRYSDPTQWTAFLGLHDQSQRSAPGVQERRLKRIISHPFFNDDLGVDYDIALLELEKPAEYSSMVRPISLPDASHVFPAGKAIWVTGWGHTQYGGTGALILQKGEIRVINQTTCENLLPQQITPRMMCVGFLSGGVDSCQGDSGGPLSSVEADGRIFQAGVVSWGDGCAQRNKPGVYTRLPLFRDWIKENTGV
On to B11, for which the “Hu fB Add-Back EC50” value in the experiment with Human Factor B [3] is 4590 nM and 3490 nM.

B12: MTSP-1 A77aT/F94Y/C122S/D125G (enzyme)
chain: VVGGTDADEGEWPWQVSLHALGQGHICGASLISPNWLVSAAHCYIDDRGFRYSDPTQWTAFLGLHDQSQRSTPGVQERRLKRIISHPFYNDFTFDYDIALLELEKPAEYSSMVRPISLPGASHVFPAGKAIWVTGWGHTQYGGTGALILQKGEIRVINQTTCENLLPQQITPRMMCVGFLSGGVDSCQGDSGGPLSSVEADGRIFQAGVVSWGDGCAQRNKPGVYTRLPLFRDWIKENTGV
Consider B12, for which the “Hu fB Add-Back EC50” value with Human Factor B [3] was 65.9 nM and 125 nM.

B13: MTSP-1 I41A/F97D/F99L/C122S (enzyme)
chain: VVGGTDADEGEWPWQVSLHALGQGHACGASLISPNWLVSAAHCYIDDRGFRYSDPTQWTAFLGLHDQSQRSAPGVQERRLKRIISHPFFNDDTLDYDIALLELEKPAEYSSMVRPISLPDASHVFPAGKAIWVTGWGHTQYGGTGALILQKGEIRVINQTTCENLLPQQITPRMMCVGFLSGGVDSCQGDSGGPLSSVEADGRIFQAGVVSWGDGCAQRNKPGVYTRLPLFRDWIKENTGV
In the case of B13, in the experiment with Human Factor B [3], the “Hu fB Add-Back EC50” value is 283 nM.

B14: MTSP-1 I41G/F97D/F99L/C122S/Y146D/C[17]S/C[19]S (enzyme)
chain: VVGGTDADEGEWPWQVSLHALGQGHGCGASLISPNWLVSAAHCYIDDRGFRYSDPTQWTAFLGLHDQSQRSAPGVQERRLKRIISHPFFNDDTLDYDIALLELEKPAEYSSMVRPISLPDASHVFPAGKAIWVTGWGHTQDGGTGALILQKGEIRVINQTTCENLLPQQITPRMMCVGFLSGGVDSCQGDSGGPLSSVEADGRIFQAGVVSWGDGCAQRNKPGVYTRLPLFRDWIKENTGV
As for B14, in the experiment with Human Factor B [3], the “Hu fB Add-Back EC50” value was 283 nM and 395 nM.

B15: MTSP-1 I41N/F97D/F99L/C122S/C[17]S/C[19]S (enzyme)
chain: VVGGTDADEGEWPWQVSLHALGQGHNCGASLISPNWLVSAAHCYIDDRGFRYSDPTQWTAFLGLHDQSQRSAPGVQERRLKRIISHPFFNDDTLDYDIALLELEKPAEYSSMVRPISLPDASHVFPAGKAIWVTGWGHTQYGGTGALILQKGEIRVINQTTCENLLPQQITPRMMCVGFLSGGVDSCQGDSGGPLSSVEADGRIFQAGVVSWGDGCAQRNKPGVYTRLPLFRDWIKENTGV
As to B15, the “Hu fB Add-Back EC50” value with Human Factor B [3] worked out at 223 nM.

B16: MTSP-1 I41G/F97E/F99L/C122S/C[17]S/C[19]S (enzyme)
chain: VVGGTDADEGEWPWQVSLHALGQGHGCGASLISPNWLVSAAHCYIDDRGFRYSDPTQWTAFLGLHDQSQRSAPGVQERRLKRIISHPFFNDETLDYDIALLELEKPAEYSSMVRPISLPDASHVFPAGKAIWVTGWGHTQYGGTGALILQKGEIRVINQTTCENLLPQQITPRMMCVGFLSGGVDSCQGDSGGPLSSVEADGRIFQAGVVSWGDGCAQRNKPGVYTRLPLFRDWIKENTGV
On to B16, for which, in the experiment with Human Factor B [3], the “Hu fB Add-Back EC50” value was 362 nM and 358 nM and 292 nM.

Source of the values: US20240117334A1 (VERTEX PHARMACEUTICALS, published 2024).
